Substrate in the series: O=c1ccn([C@H]2C[C@H](O)[C@@H](COP(=O)(O)O)O2)c(=O)[nH]1
Nature of the series: Kinetic analysis of TS activity (substrates). The series is classed as biochemical, Trypanosoma brucei. The note with it: other: clarified E. coli lysate, spectrophotometric assay. The protocol: The initial characterisation of TS was also carried out using a spectrophotometric assay. Owing to the pronounced instability of the recombinant protein, clarified ThyA^- E. coli lysates were used for characterisation, where the concentration of TS was calculated based on DHFR activity. […] . Enzymatic reactions were initiated by the addition of CH2THF (200 μM, Shircks Laboratories) and initial rates of CH2THF oxidation to DHF monitored by the increase in absorbance at 340 nm (ε = 6,200 M^-1 cm^-1). This method is not suitable for determination of the Km^app for CH2THF and a radiometric method was used instead. This method measures the release of tritiated water from 5-[^3H]-dUMP (American Radiochemicals, 14.3 Ci mmol^-1). Assays (40 μl final volume) contained 200 nM TS and varying amounts of CH2THF (37.5 μM– 4.8 mM) in DHFR-assay buffer. Reactions were initiated by adding 200 μM [^3H]-dUMP (5.55 × 10^5 dpm nmol^-1) and stopped after 10 min by the addition of 20 μl trichloroacetic acid. Residual 5-[^3H]-dUMP was removed by the addition of 200 μl of 10% (w/v) activated charcoal (Sigma). Aliquots (100 μl) of the supernatants were added to 2 ml of scintillation fluid (Pico-Fluor 40™, Packard Bioscience) and radioactivity determined using a Beckmann LS 6500 Scintillation Counter. […] Protein concentrations were determined using the BioRad protein assay based on the method of Bradford. […]

B1: T. brucei TS (Tsf-TbDHFR-TS) (Trypanosoma brucei brucei) (protein)
chain: MLSLTRILRKKIPVHELAGKISRPPLRPFSVVVASDEKGGIGDGGTIPWEIPEDMQYFRRVTTNLRGKNVKPSPSKRNAVVMGRKTWDSLPPKFRPLSNRLNVVLSRSATKEQLLAGIPDPIKRAEAANDVVAVNGGLEDALRMLVSKEHTSSIETVFCIGGGTIYKQALCAPCVNVLQAIHRTVVRPASNSCSVFFDIPAAGTKTPEGLELVRESITDERVSTGAGGKKYQFEKLVPRNSEEEQYLNLVGRIIDEGCTKCDRTGVGTRSLFGAQMRFSLRNNRLPLLTTKRVFWRGVCEELLWFLRGETNAKLLSDKGIHIWDGNGSRAFLDSRGLTDYDEMDLGPVYGFQWRHFGADYISCKVDSEGKGVDQIANIVKSLIENPDDRRMICTAWNPAALPRMALPPCHMMAQFYVSNGELSCMLYQRSCDMGLGVPFNIASYALLTFLMAKASGLRPGELVHTLGDAHVYSNHVEPCRKQLKRVPRPFPFIVFKQDKEFLEDFQESDIEVIDYSPYPVISMEMAV
notes: The open reading frame of DHFR-TS was amplified by PCR from T. brucei gDNA using specific oligonucleotides; made in house; host or cells: thyA- E. coli derived from BL21 Star (DE3); unpurified clarified lysate
As a reminder, the Km is the concentration of substrate that gives half-maximal velocity. On to B1, for which the Km turned out to be 8.2 ± 0.6 µM.

These data come from paper PMC4866688, “Trypanosoma brucei DHFR-TS Revisited: Characterisation of a Bifunctional and Highly Unstable Recombinant Dihydrofolate Reductase-Thymidylate Synthase” (PLoS Neglected Tropical Diseases, 2016).
